Consider 1 substance from doi:10.1101/2021.12.31.474340.

This assay addresses guanylyl cyclase-A (GC-A), human, stably expressed in QBIHEK293A cells (human) (UniProt P16066). Put plainly: radioligand binding.
Sequence of UniProt P16066 (P16066 33-473): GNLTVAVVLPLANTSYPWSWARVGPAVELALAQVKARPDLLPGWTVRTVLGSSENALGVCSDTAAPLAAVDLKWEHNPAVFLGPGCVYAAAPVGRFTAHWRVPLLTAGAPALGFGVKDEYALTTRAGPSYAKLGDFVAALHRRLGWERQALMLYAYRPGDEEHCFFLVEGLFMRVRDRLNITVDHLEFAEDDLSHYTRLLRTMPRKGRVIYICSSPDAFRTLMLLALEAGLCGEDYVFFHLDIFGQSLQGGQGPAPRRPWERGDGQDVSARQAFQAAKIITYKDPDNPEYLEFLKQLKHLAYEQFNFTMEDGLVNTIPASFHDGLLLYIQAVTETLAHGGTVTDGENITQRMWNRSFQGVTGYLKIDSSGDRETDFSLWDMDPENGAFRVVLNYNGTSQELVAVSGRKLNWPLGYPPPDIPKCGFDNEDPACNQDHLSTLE

For ^125I-ANP (peptide), the increase of binding with increasing concentrations of compound #20 turned out to be 71% and the increase of overall binding with 10 uM compound #20 against control came to 60%.
